Results taken from patent US20100093028A1 (DANISCO US, published 2010).
Changes are numbered by the printed parent chain. Numbers in names are those of the source.

What was measured:
[1] = target: T1, vascular endothelial growth factor (UniProt P15692-4 27-191, limits assumed, biotin label (Example 5), site not stated); assay: BioVeris ECL competition with a labeled competitor; legend: +++ = IC50 about 2-10 µM
T1 construct: also called VEGF; VegF
Experimental: (§1) The resulting vectors were used to transform B. subtilis BG6006 host cells. Cultures were grown in 500 ml of MBD medium and the BBI species were purified essentially as described above and by Vogtentanz et al., 2007 (Protein Expr Purif 55:40-52 [2007]). BioVeris binding assays were performed essentially as outlined in Example 5 and by the manufacturer. Binding of the modified variant BBIs to their respective target proteins was measured using a BioVeris® binding assay, which is a competition assay that determines the binding of the modified variant BBIs to its target protein (e.g. VEGF, FGF5, TGFβ and TNFα) in the presence or absence of a labeled competitor. The competitor can be a labeled monoclonal antibody raised against the target protein or a labeled native receptor of the target protein. The electrochemiluminesent binding assays were performed essentially as described in Example 5. The apparent IC50s were determined from binding data by determining the concentration of the BBI species needed to reduce the BioVeris signal by one half. BBI scaffolds without the target binding peptide in the chymotrypsin inhibitory loop were used as negative controls.

Tumor necrosis factor α [2] = target: T2, Tumor necrosis factor α (UniProt P01375 77-233); assay: BioVeris ECL competition with a labeled competitor; legend: ++ = IC50 about 10-50 µM
T2 construct: also called TNFα; TNF
T2 sequence (P01375 77-233 limits assumed): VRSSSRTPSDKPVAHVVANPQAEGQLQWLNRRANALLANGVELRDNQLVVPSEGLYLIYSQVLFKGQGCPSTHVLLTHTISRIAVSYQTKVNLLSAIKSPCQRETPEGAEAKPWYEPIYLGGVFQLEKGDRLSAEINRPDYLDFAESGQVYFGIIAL
Experimental: as §1

Tumor necrosis factor α [3] = target: T2, Tumor necrosis factor α; assay: BioVeris ECL competition; negative control for TNFα binding
[4] = target: T1, vascular endothelial growth factor; assay: BioVeris ECL competition with a labeled competitor; legend: ++ = IC50 about 10-50 µM
Experimental: as §1

[5] = target: T3, fibroblast growth factor 5 (UniProt P12034 21-268, limits assumed); assay: as above
T3 construct: also called FGF-5; FGF5
T3 sequence (looked up): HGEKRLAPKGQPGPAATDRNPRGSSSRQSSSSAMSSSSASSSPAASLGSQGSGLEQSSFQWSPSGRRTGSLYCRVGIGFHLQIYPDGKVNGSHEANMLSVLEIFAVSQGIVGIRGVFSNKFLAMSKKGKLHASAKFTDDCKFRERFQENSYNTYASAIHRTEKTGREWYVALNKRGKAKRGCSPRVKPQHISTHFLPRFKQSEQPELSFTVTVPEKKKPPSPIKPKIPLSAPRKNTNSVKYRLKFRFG
Experimental: as §1

[6] = target: T4, Transforming growth factor β1 (UniProt P01137 279-390); assay: BioVeris ECL competition; negative control for TGFβ binding
T4 construct: also called TGFβ1; TGFβ
T4 sequence (P01137 279-390 limits assumed): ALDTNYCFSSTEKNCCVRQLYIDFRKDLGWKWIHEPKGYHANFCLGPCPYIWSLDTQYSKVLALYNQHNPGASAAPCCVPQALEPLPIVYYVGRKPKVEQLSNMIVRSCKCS

[7] = target: T4, Transforming growth factor β1; assay: BioVeris ECL competition with a labeled competitor; legend: ++ = IC50 about 10-50 µM
Experimental: as §1

Tumor necrosis factor α [8] = target: T2, Tumor necrosis factor α; assay: BioVeris ECL competition with a labeled competitor; legend: + = IC50 about 50-250 µM
Experimental: as §1

[9] = target: T1, vascular endothelial growth factor; assay: BioVeris ECL competition; wild-type negative control for VEGF binding
[10] = target: T3, fibroblast growth factor 5; assay: BioVeris ECL competition; wild-type negative control for FGF-5 binding

T1 sequence (P15692 other isoform, or with tags, fused parts or gaps limits assumed): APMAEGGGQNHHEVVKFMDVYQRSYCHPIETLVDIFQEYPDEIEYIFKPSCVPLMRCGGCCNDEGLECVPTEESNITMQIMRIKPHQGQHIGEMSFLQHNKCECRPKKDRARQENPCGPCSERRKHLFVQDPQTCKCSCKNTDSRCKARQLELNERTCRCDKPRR

B1: BBIt-AV (designed binder)
chain: DDESSKPCCDQCACTKSNPPQCRCSDMRLNSCHSACKSCACYNLYGWTCFCVDITDFCYEPCKPSE
notes: BBI-AV without its 5 C-terminal amino acids; also called truncated BBI-AV; unmodified BBIt-AV
Q: Which IC50 [1] does the source give for B1 here?
A: 2 to 10 µM

B2: BBIt-AV-A13I-L29P-A40K-F50T-V52A (designed binder)
chain: DPDDESSKPCCDQCICTKSNPPQCRCSDMRPNSCHSACKSCKCYNLYGWTCTCADITDFCYEPCKPSE
notes: also called TA5; quintuple variant
Q: For B2, which IC50 [1] is on record?
A: 2 to 10 µM

B3: BBIt-AV-A13I-A40K-F50T-V52A (designed binder)
chain: B2 chain with P31L
notes: the entry as printed carries an N-terminal DP from the linker
Q: With B3 as the binder, how does the IC50 [1] read?
A: 2 to 10 µM

B4: BBIt-AV-A13I-S25K-M27A-L29R-S31A-A40H-F50R-V52L (designed binder)
chain: B2 chain with S27K, M29A, P31R, S33A, K42H, T52R, A54L
notes: the entry carries an N-terminal DP; also called RL8
Q: With B4 as the binder, how does the IC50 [1] read?
A: 2 to 10 µM

B5: BBIt-AV-A13I-S25K-M27A-L29R-S31E-A40K-F50Q-V52Q (designed binder)
chain: B2 chain with S27K, M29A, P31R, S33E, T52Q, A54Q
notes: the entry carries an N-terminal DP; also called QQ8
Q: For B5, which IC50 [1] is on record?
A: 2 to 10 µM

B6: BBIt-AV-A13I-S25R-M27A-L29P-S31A-A40H-F50K-V52T (designed binder)
chain: B2 chain with S27R, M29A, S33A, K42H, T52K, A54T
notes: the entry carries an N-terminal DP; also called KT8
Q: B6 was tested. Which IC50 [1] did it give?
A: 2 to 10 µM

B7: BBdb-AV (designed binder)
chain: DPSESSKPCCDQCACTKSIPPQCRCTDVRLNSCHSACSSCACYNLYGWTCVCVDMKDFCYEPCK
notes: also called BBIdb-AV
Q: B7 was tested. Which IC50 [1] did it give?
A: 2 to 10 µM

B8: BBtc-AV (designed binder)
chain: DPSSKWEACCDRCACTKSIPPQCHCADIRLNSCHSACESCACYNLYGWTCRCFDITDFCYKPCSG
notes: also called BBItc-AV
Q: For B8, which IC50 [1] is on record?
A: 2 to 10 µM

B9: BBIt-VEGKD-A13I-S25K-L29P-V52K (designed binder)
chain: DPDDESSKPCCDQCICTKSNPPQCRCKDMRPNSCHSACKSCICKYDLYWWCFCKDITDFCYEPCKPSE
notes: also called VegKD-Q
Q: With B9 as the binder, how does the IC50 [1] read?
A: 2 to 10 µM

B10: BBIt-TNFα-T1-A13I-S25R-M27A-L29P-S31A-F50K-V52T (designed binder)
chain: DPDDESSKPCCDQCICTKSNPPQCRCRDARPNACHSACKSCACRYWQDIPCKCTDITDFCYEPCKPSE
notes: also called BBIt-TNF-T1
Q: With B10 as the binder, how does the IC50 (Tumor necrosis factor α [2]) read?
A: 10 to 50 µM

B11: BBIt-VEGF-V1-A13I-S25R-M27A-L29P-S31A-F50K-V52T (designed binder)
chain: B10 chain with R44S, Y45K, W46H, Q47S, D48Q, P50T
notes: also called BBIt-AV-V1
Q: B11 was tested. Which IC50 (Tumor necrosis factor α [3]) did it give?
A: > 250 µM

Q: And the IC50 [4]?
A: 10 to 50 µM

B12: BBIt-VEGF-V5-A13I-S25R-M27A-L29P-S31A-F50K-V52T (designed binder)
chain: B10 chain with R44K, Y45P, W46S, Q47S, D48A, I49S, P50S
notes: also called BBIt-AV-V5
Q: B12 was tested. Which IC50 [4] did it give?
A: 10 to 50 µM

B13: BBIt-VEGF-V2-A13I-S25R-M27A-L29P-S31A-F50K-V52T (designed binder)
chain: B10 chain with R44K, Y45T, W46N, Q47P, D48S, I49G, P50S
notes: also called BBIt-AV-V2
Q: B13 was tested. Which IC50 [1] did it give?
A: 2 to 10 µM

B14: BBIt-VEGF-V3-A13I-S25R-M27A-L29P-S31A-F50K-V52T (designed binder)
chain: B10 chain with Y45P, W46T, Q47G, D48H, I49S, P50L
notes: also called BBIt-AV-V3
Q: For B14, which IC50 [4] is on record?
A: 10 to 50 µM

B15: BBIt-VEGF-V4-A13I-S25R-M27A-L29P-S31A-F50K-V52T (designed binder)
chain: B10 chain with R44K, Y45H, W46S, Q47A, D48K, I49A, P50E
notes: also called BBIt-AV-V4
Q: Which IC50 [1] does the source give for B15 here?
A: 2 to 10 µM

B16: BBIt-VEGF-V6-A13I-S25R-M27A-L29P-S31A-F50K-V52T (designed binder)
chain: B10 chain with R44P, Y45V, W46T, Q47K, D48R, I49V, P50H
notes: also called BBIt-AV-V6
Q: How did the IC50 [1] turn out when B16 was run?
A: 2 to 10 µM

B17: MM007-Q-BBIt-FGF-5 (designed binder)
chain: B2 chain with K42A, Y44R, N45T, L46Q, Y47P, G48Y, W49P, T50L
notes: also called BBIt-MM007-Q-A13I-L29P-F50T-V52A
Q: How did the IC50 [5] turn out when B17 was run?
A: 10 to 50 µM

B18: FGFps2-Q-BBIt-FGF-5 (designed binder)
chain: B2 chain with K42A, Y44T, N45W, L46I, Y47D, G48S, W49T, T50P
notes: also called BBIt-FGFps2-Q-A13I-L29P-F50T-V52A
Q: How did the IC50 [6] turn out when B18 was run?
A: > 250 µM

Q: What about the IC50 [5] of the same binder?
A: 10 to 50 µM

B19: PEN3-Q-BBIt-TGFβ1 (designed binder)
chain: DPDDESSKPCCDQCICTKSNPPQCRCSDMRPNSCHSACKSCACPENINVLPCTCADITDFCYEPCKPSE
notes: also called BBIt-PEN3-Q-A13I-L29P-F50T-V52A
Q: Which IC50 [7] does the source give for B19 here?
A: 10 to 50 µM

B20: MM021W-Q-BBIt-TGFβ1 (designed binder)
chain: B2 chain with K42A, Y44K, N45H, L46N, Y47V, G48D, T50L
notes: also called MM0212-Q-BBIt-TGF; BBIt-MM021W-Q-A13I-L29P-F50T-V52A
Q: Which IC50 [7] does the source give for B20 here?
A: 10 to 50 µM

B21: WTQ-Q-BBIt-TGFβ1 (designed binder)
chain: B2 chain with K42A, Y44W, N45T, L46Q, Y47H, G48I, W49H, T50N
notes: also called BBIt-WTQ-Q-A13I-L29P-F50T-V52A
Q: For B21, which IC50 [7] is on record?
A: 10 to 50 µM

B22: BBIt-TNFα-T2-A13I-S25R-M27A-L29P-S31A-F50K-V52T (designed binder)
chain: B10 chain with R44A, Y45P, W46E, Q47P, D48I, I49L, P50A
notes: also called BBIt-TNF-T2
Q: With B22 as the binder, how does the IC50 (Tumor necrosis factor α [8]) read?
A: 50 to 250 µM

B23: BBIt-TNFα-T3-A13I-S25R-M27A-L29P-S31A-F50K-V52T (designed binder)
chain: B10 chain with R44D, Y45M, W46I, Q47M, D48V, I49S, P50I
notes: also called BBIt-TNF-T3
Q: With B23 as the binder, how does the IC50 (Tumor necrosis factor α [8]) read?
A: 50 to 250 µM

B24: wild-type soybean Bowman-Birk protease inhibitor (other)
chain: DDESSKPCCDQCACTKSNPPQCRCSDMRLNSCHSACKSCICALSYPAQCFCVDITDFCYEPCKPSEDDKEN
notes: Negative control with the native chymotrypsin loop ALSYPAQ; also called sBBI; BBI
Q: What does the source list for B24?
A: IC50 [9]: > 250 µM; IC50 [10]: > 250 µM
